Results published in PMC12489474, “New structural insights into the control of the retinoic acid receptors RAR/RXR by DNA, ligands, and transcriptional coregulators” (Nucleic Acids Research, 2025).

T1: RAR/RXR heterodimer (RARAΔABF with RXRAΔAB) (mouse (printed as MmRARAΔABF; the same …, UniProt P11416 82-421; P19793 126-462)
T1 construct: retinoic acid receptor alpha, residues 82-421 of Uniprot entry P11416; as the chain of m1; as the chain of m2; 1:1 heterodimer by SEC-MALS; this is told in the format of each assay; also called RR–DR0; source: E. coli BL21 (DE3); RAR and RXR purified separately, mixed (2-fold excess of RAR), heterodimer purified by SEC (Superdex 200); not shown: His6, N-terminal, cleaved
T1 sequence (looked up) 1: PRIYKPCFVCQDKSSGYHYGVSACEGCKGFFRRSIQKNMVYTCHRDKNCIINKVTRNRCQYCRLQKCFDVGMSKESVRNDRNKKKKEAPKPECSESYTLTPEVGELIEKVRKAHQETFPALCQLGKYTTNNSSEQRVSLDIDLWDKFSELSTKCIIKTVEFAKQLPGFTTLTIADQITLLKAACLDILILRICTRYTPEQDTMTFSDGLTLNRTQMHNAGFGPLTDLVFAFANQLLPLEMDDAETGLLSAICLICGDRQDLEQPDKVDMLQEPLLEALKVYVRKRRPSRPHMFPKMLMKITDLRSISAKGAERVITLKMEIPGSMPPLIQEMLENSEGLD
T1 sequence (looked up) 2: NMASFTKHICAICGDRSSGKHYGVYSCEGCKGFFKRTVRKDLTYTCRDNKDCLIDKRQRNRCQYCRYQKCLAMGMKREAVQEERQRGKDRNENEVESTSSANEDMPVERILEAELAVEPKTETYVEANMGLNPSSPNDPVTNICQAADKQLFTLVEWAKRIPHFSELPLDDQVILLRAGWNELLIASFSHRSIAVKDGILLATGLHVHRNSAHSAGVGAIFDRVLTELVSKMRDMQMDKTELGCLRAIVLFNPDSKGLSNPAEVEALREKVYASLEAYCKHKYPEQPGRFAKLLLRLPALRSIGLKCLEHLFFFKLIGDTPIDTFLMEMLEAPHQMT

B1: DR0L Hoxb13 (dsDNA)
DNA 1: CTTCCAGGAAGGTCAAGGCCAAGTTGAAAG
DNA 2: CTTTCAACTTGGCCTTGACCTTCCTGGAAG
B2: Atto647N-labeled NCoRNID (domain or fragment, UniProt Q60974 2059-2325, looked up)
chain: QVPRTHRLITLADHICQIITQDFARNQVPSQASTSTFQTSPSALSSTPVRTKTSSRYSPESQSQTVLHPRPGPRVSPENLVDKSRGSRPGKSPERSHIPSEPYEPISPPQGPAVHEKQDSMLLLSQRGVDPAEQRSDSRSPGSISYLPSFFTKLESTSPMVKSKKQEIFRKLNSSGGGDSDMAAAQPGTEIFNLPAVTTSGAVSSRSHSFADPASNLGLEDIIRKALMGSFDDKVEDHGVVMSHPVGIMPGSASTSVVTSSEARRDE
modifications: Atto647N label (site not stated)

How the values were obtained:
[1] = biological target: RARalpha dAB dF;RXRalpha dAB;NCoR NID (Mus musculus / Homo sapiens (Methods …, UniProt P11416;P19793;Q60974 82-421;126-462;2059-2325, ||)); assay: SEC-SAXS; BMS493; Fluorescence anisotropy: 20 mM Tris-HCl pH 7.5, 75 mM NaCl, 75 mM KCl, 2 mM CHAPS, 4 mM MgCl2, 2 mM TCEP, 10% glycerol, 0.5 nM Cy5-DNA, 4 uM ligands, 294 K; details: protein: recombinant;recombinant;recombinant; tags: N-terminal His6 (pET15b); copies: 1;1;1; blunt
[2] = biological target: RARalpha dAB dF;RXRalpha dAB (Mus musculus / Homo sapiens (Methods …, UniProt P11416;P19793 82-421;126-462, |)); assay: SEC-SAXS; apo; Fluorescence anisotropy: 20 mM Tris-HCl pH 7.5, 75 mM NaCl, 75 mM KCl, 2 mM CHAPS, 4 mM MgCl2, 2 mM TCEP, 10% glycerol, 0.5 nM Cy5-DNA, 4 uM ligands, 294 K; details: protein: recombinant;recombinant; tags: N-terminal His6 (pET15b); copies: 1;1; blunt
[3] = biological target: T1, RAR/RXR heterodimer (RARAΔABF with …); assay: MST; RR–DR1 with the agonists AM580 + CD3254; heterodimer titrated against labelled NCoRNID; same buffer, 22°C; details: both partners purified
[4] = biological target: T1, RAR/RXR heterodimer (RARAΔABF with …); assay: MST; RR–DR5 with BMS493; heterodimer titrated against labelled NCoRNID; same buffer, 22°C; details: both partners purified
[5] = biological target: T1, RAR/RXR heterodimer (RARAΔABF with …); assay: MST; RAR/RXR bound to IR0 DNA (RR–IR0), no ligand (apo); heterodimer titrated against labelled NCoRNID; same buffer, 22°C; details: both partners purified
[6] = biological target: T1, RAR/RXR heterodimer (RARAΔABF with …); assay: MST; RAR/RXR bound to DR1 DNA (RR–DR1), no ligand (apo); heterodimer titrated against labelled NCoRNID; same buffer, 22°C; details: both partners purified
[7] = biological target: T1, RAR/RXR heterodimer (RARAΔABF with …); assay: MST; RAR/RXR without DNA, no ligand (apo); heterodimer in 2-fold serial dilution from 20 μM, added to an equal volume of 80 nM Atto647N-NCoRNID; 20 mM Tris–HCl pH 7.5, 75 mM NaCl, 75 mM KCl, 2 mM CHAPS, 4 mM MgCl2, 5% glycerol, 0.05% Tween-20; 22°C; details: both partners purified
[8] = biological target: T1, RAR/RXR heterodimer (RARAΔABF with …); assay: MST; RR–DR0 with BMS493; heterodimer titrated against labelled NCoRNID; same buffer, 22°C; details: both partners purified
[9] = biological target: T1, RAR/RXR heterodimer (RARAΔABF with …); assay: MST; RR–DR1 with BMS493; heterodimer titrated against labelled NCoRNID; same buffer, 22°C; details: both partners purified
[10] = biological target: T1, RAR/RXR heterodimer (RARAΔABF with …); assay: MST; RR–IR0 with BMS493; heterodimer titrated against labelled NCoRNID; same buffer, 22°C; details: both partners purified
[11] = biological target: T1, RAR/RXR heterodimer (RARAΔABF with …); assay: MST; RAR/RXR bound to DR0 DNA (RR–DR0), no ligand (apo); heterodimer titrated against labelled NCoRNID; same buffer, 22°C; details: both partners purified
[12] = biological target: T1, RAR/RXR heterodimer (RARAΔABF with …); assay: MST; RAR/RXR without DNA, with BMS493; heterodimer titrated against labelled NCoRNID; same buffer, 22°C; details: both partners purified
[13] = biological target: T1, RAR/RXR heterodimer (RARAΔABF with …); assay: MST; RAR/RXR bound to DR5 DNA (RR–DR5), no ligand (apo); heterodimer titrated against labelled NCoRNID; same buffer, 22°C; details: both partners purified

Binder | binding result [1] | binding result [2] | Kd [3] [nM] | Kd [4] [nM] | Kd [5] [nM] | Kd [6] [nM] | Kd [7] [nM] | Kd [8] [nM] | Kd [9] [nM] | Kd [10] [nM] | Kd [11] [nM] | Kd [12] [nM] | Kd [13] [nM]
B1 | binds | binds | – | – | – | – | – | – | – | – | – | – | –
B2 | – | – | 5300 | 335 | 289 | 531 | 490 | 244 | 499 | 289 | 414 | 368 | 283
